Test results as given in IntAct's records for PubMed 14517550.

B1: Caspase Dronc (Drosophila melanogaster (Fruit fly)), Q9XYF4 (parent)
chain: MQPPELEIGMPKRHREHIRKNLNILVEWTNYERLAMECVQQGILTVQMLRNTQDLNGKPFNMDEKDVRVEQHRRLLLKITQRGPTAYNLLINALRNINCLDAAVLLESVDESDSRPPFISLNERRTSRKSADIVDTPSPEASEGPCVSKLRNEPLGALTPYVGVVDGPEVKKSKKIHGGDSAILGTYKMQSRFNRGVLLMVNIMDYPDQNRRRIGAEKDSKSLIHLFQELNFTIFPYGNVNQDQFFKLLTMVTSSSYVQNTECFVMVLMTHGNSVEGKEKVEFCDGSVVDMQKIKDHFQTAKCPYLVNKPKVLMFPFCRGDEYDLGHPKNQGNLMEPVYTAQEEKWPDTQTEGIPSPSTNVPSLADTLVCYANTPGYVTHRDLDTGSWYIQKFCQVMADHAHDTDLEDILKKTSEAVGNKRTKKGSMQTGAYDNLGFNKKLYFNPGFFNE
partner: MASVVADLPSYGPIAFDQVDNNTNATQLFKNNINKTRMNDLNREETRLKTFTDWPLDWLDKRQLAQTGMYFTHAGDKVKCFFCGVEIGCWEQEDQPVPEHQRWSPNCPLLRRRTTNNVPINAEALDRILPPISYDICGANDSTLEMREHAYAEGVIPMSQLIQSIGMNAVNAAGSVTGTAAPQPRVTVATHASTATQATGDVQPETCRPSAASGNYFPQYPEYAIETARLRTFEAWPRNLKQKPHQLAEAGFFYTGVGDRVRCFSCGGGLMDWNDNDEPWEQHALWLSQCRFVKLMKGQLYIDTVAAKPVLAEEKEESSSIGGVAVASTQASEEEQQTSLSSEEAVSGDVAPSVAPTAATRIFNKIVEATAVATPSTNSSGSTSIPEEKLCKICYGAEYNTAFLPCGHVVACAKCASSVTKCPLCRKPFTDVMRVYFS

Variants of: B1
Conditions: with diap1_drome Diap1, Q24306

Row | Variant | effect of a mutation on the interaction
1 | F118E | decreasing interaction
